The results in this text go back to paper PMC4103454, “FAN1 Activity on Asymmetric Repair Intermediates Is Mediated by an Atypical Monomeric Virus-type Replication-Repair Nuclease Domain” (Cell Reports, 2014).

Usually Kd stands for a measure of binding affinity in units of concentration. As usually defined, the stoichiometry N is the number of molecules, sites or subunits per partner or assembly.

B1: tryptic fragment 795-1,012 of hFAN1_360 (domain or fragment, human, UniProt Q9Y2M0 795-1012, looked up)
chain: SVFVMEAGEAADPTTVLCSVEELALAHYRRSGFDQGIHGEGSTFSTLYGLLLWDIIFMDGIPDVFRNACQAFPLDLCTDSFFTSRRPALEARLQLIHDAPEESLRAWVAATWHEQEGRVASLVSWDRFTSLQQAQDLVSCLGGPVLSGVCRHLAADFRHCRGGLPDLVVWNSQSRHFKLVEVKGPNDRLSHKQMIWLAELQKLGAEVEVCHVVAVGAK
notes: human FAN1, protected tryptic fragment identified by mass spectrometry as amino acids 795-1,012; The three fragments are said to correspond broadly to the SAP, TPR and VRR-Nuc homology regions; also called amino acids 795–1,012; source: limited tryptic proteolysis of purified hFAN1_360 (from E. coli)

Data set [1] deals with stNUC. The experiment in a line: EMSA. As to conditions: EMSA: 1 nM radiolabelled DNA, 20 C, 30 min, binding buffer in Supplemental Information (composition and pH not in material); 2.5% Ficoll-400, 8% native PAGE in …. Background: In EMSA bound probe runs differently from free probe, usually more slowly.
Data set [2] relates to psNUC. The experiment in a line: EMSA. As to conditions: stoichiometric binding at 1 nM DNA; 'indicative of a subnanomolar' KD; EMSA: 1 nM radiolabelled DNA, 20 C, 30 min, binding buffer in Supplemental Information (composition and pH not in material); 2.5% Ficoll-400, 8% native PAGE in ….
In data set [3] the target is saNUC, VRR-Nuc single-domain protein of Salmonella enteritidis typing phage 3 (Salmonella enteritidis typing phage 3). The data set is described as follows: AUC; sedimentation velocity, 50,000 rpm, 277 K, 50 mM Tris/HCl pH 8.0, 300 mM NaCl, 0.50 mM TCEP, interference optics, SEDFIT c(s) and c(M).
Data set [4] concerns the target stNUC, VRR-Nuc single-domain protein of Streptococcus equi bacteriophage P9 (Streptococcus equi bacteriophage P9). Described as above.
Data set [5] deals with T1, tryptic fragment 515-790 of hFAN1_360 (human, UniProt Q9Y2M0 515-790).
T1 construct: human FAN1, protected tryptic fragment identified by mass spectrometry as amino acids 515-790; The three fragments are said to correspond broadly to the SAP, TPR and VRR-Nuc homology regions; also called amino acids 515–790; source: limited tryptic proteolysis of purified hFAN1_360 (from E. coli)
T1 sequence (looked up): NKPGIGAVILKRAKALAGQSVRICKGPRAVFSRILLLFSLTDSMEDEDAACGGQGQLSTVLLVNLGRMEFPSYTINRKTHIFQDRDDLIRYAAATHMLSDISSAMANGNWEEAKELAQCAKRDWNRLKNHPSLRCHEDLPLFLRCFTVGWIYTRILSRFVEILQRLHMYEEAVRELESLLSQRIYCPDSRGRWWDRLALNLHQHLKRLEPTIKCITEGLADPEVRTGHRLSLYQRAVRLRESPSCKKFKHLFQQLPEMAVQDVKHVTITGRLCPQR
The data set is described as follows: SEC; S200 gel filtration of a preparative scale tryptic digest of hFAN1_360; SDS-PAGE of fractions across the peak. The settings on record: both partners purified. A general note: SEC sorts molecules by how far they enter the pores of the column.

Data set [6] deals with the molecule itself. The experiment in a line: AUC; sedimentation velocity, 50,000 rpm, 277 K, 50 mM Tris/HCl pH 8.0, 300 mM NaCl, 0.50 mM TCEP, interference optics, SEDFIT c(s) and c(M).
Data set [7] concerns the molecule itself. The experiment in a line: AUC; sedimentation velocity as above, psNUC at concentrations above 70 uM; dimer to tetramer.
Data set [8] has as its target B1. The experiment in a line: SEC; S200 gel filtration of a preparative scale tryptic digest of hFAN1_360; SDS-PAGE of fractions across the peak. The settings on record: both partners purified.

Turning to four-way DNA junction (HJ), the Kd in data set [1] was 200 nM; in data set [2], below 1 nM.
In turn, “saNUC, VRR-Nuc single-domain protein of Salmonella enteritidis typing phage 3 (enzyme)” showed a stoichiometry N in data set [3] of 2.
“stNUC, VRR-Nuc single-domain protein of Streptococcus equi bacteriophage P9 (enzyme)” displayed a stoichiometry N in data set [4] of 2.
Consider B1, for which the binding result in data set [5] was “binds”.

B2: psNUC, VRR-Nuc single-domain protein of Psychrobacter (enzyme)
chain: RLKGLTEDEVQTVVMNWSKRQKFKGRPLFDYIHHSPNGGKRAAKIGSSGKRYSPEAAKFKRMGVKAGYPDLIIDIARGAYHGLRIEIKKDGNSYATPAQKERIEMLAKEGYCAVVAKGIDNVISVIQQYIKLGDFDGVSQLTADK
notes: psNUC, standalone VRR-Nuc domain protein of Psychrobacter, UniProt A5WF35; Synthetic gene (GeneART) in pGEX 6P-1; The structure was solved by SAD on a selenomethionine derivative; source: E. coli, purified (glutathione-Sepharose, 3C protease cleavage, Superdex gel filtration)
Take B2: the results for the “stoichiometry N” value in data set [6] and in data set [7] were 2 and 4, respectively.

B3: tryptic fragment 360-507 of hFAN1_360 (domain or fragment, human, UniProt Q9Y2M0 360-507, looked up)
chain: GSSCNGPGQTTGHPYYLRSFLVVLKTVLENEDDMLLFDEQEKGIVTKFYQLSATGQKLYVRLFQRKLSWIKMTKLEYEEIALDLTPVIEELTNAGFLQTESELQELSEVLELLSAPELKSLAKTFHLVNPNGQKQQLVDAFLKLAKQR
notes: human FAN1, protected tryptic fragment identified by mass spectrometry as amino acids 360-507; The three fragments are said to correspond broadly to the SAP, TPR and VRR-Nuc homology regions; also called amino acids 360–507; source: limited tryptic proteolysis of purified hFAN1_360 (from E. coli)
In the case of B3, the binding result in data set [8] and in data set [5] was “binds” in each case.
